The target of assay [1] is T1, IL-4Rα on HEK293-hSTAT6/5×STAT6-Luc cells (UniProt P24394 26-825, limits assumed).
T1 sequence (looked up): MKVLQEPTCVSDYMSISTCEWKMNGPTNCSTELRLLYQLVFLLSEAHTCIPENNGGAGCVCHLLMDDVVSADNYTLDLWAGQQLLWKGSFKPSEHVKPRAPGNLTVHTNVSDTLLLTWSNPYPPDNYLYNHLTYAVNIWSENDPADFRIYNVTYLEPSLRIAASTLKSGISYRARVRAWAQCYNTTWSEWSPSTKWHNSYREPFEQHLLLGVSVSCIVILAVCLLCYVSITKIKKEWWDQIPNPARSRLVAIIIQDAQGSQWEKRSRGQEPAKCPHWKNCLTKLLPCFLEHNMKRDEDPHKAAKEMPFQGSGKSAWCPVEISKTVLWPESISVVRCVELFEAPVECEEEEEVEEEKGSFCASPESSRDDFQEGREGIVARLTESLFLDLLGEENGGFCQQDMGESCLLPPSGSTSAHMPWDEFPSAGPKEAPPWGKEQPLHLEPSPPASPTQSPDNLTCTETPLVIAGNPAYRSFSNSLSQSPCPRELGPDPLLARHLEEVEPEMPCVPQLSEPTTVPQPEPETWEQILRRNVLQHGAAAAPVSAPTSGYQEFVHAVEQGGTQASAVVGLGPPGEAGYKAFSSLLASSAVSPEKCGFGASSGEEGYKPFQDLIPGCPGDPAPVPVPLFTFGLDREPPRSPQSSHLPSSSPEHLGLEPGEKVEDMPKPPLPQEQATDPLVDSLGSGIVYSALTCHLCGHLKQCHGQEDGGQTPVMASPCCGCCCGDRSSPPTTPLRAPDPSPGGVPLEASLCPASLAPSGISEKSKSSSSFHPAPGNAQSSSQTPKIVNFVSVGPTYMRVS
Put plainly: cell-based or functional assay.

Assay [2] deals with T2, 人IL-4R表达于HEK293-IL-4R细胞表面 (human IL-4R on the surface of HEK293-IL-4R cells) (human, UniProt P24394 26-825).
T2 construct: whole, on cells; The construct in the HEK293-IL-4R line is not described; also called 人IL-4R过表达细胞; 细胞表面IL-4R
T2 sequence (looked up): T1 sequence (looked up)
In words: FACS on HEK293-IL-4R cells, FITC anti-human IgG, MFI.

Assay [3] concerns the target T3, IL-4R蛋白 (Acrobiosystems, IL-H5221) (human, UniProt P24394 26-232).
T3 construct: The two catalogue numbers differ by one letter, likely a misprint; also called Human IL4R Protein, His Tag (Acro, ILR-H5221); 人IL 4R
T3 sequence (looked up): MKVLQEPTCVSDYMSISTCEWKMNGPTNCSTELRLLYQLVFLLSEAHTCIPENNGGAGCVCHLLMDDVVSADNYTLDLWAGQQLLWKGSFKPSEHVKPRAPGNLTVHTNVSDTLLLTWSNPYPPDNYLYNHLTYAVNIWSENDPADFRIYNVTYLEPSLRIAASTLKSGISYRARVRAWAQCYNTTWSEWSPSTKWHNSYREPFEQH
Put plainly: BLI (Octet RH96), antibody captured on AHC2 probes, IL-4R protein in solution, 1:1 model. For orientation: BLI is a label-free optical method that tracks binding on a fibre tip over time.

In assay [4] the target is T2, 人IL-4R表达于HEK293-IL-4R细胞表面 (human IL-4R …). Put plainly: FACS competition: blocking of biotinylated human IL-4 binding to HEK293-IL-4R cells, PE streptavidin, MFI.

B1: 65G5 (antibody, human IgG1, kappa, V domains shown)
VH: EVKLVESGGALVQPGGSLKLSCAASGFTFNSYGMSWVRQTPDKRLELVAVISSDGAYTYYPDSMKGRFTISRDNAKSSLYLQMSSLQSEDTAMYYCTLITTWYFDVWGAGTTVTVSS
VL: DIQMTQSSSSFSVSLGDRVTITCKASEELYNRLAWYQQKPGNAPRLFISGATTLETGVPSRFSGSGSGKDYTLSITSLQTEDVATYYCQQYWSSPYTFGGGTKLELKR
notes: also called 抗人IL-4R抗体; 抗IL-4R抗体
In the case of B1, in assay [1], the “抑制IL-4诱导的HEK293-hSTAT6/5×STAT6-Luc细胞中STAT6磷酸化活性 (luciferase reporter, IL4 protein 40ng/mL) IC50” value was 92.7 nM and the “抑制IL-13诱导的HEK293-hSTAT6/5×STAT6-Luc细胞中STAT6磷酸化活性 (luciferase reporter, IL-13 protein 10ng/mL) IC50” value was determined as 5.6 nM. Moreover, the EC50 (in general, the concentration giving half of the maximal effect) in assay [2] turned out to be 0.334 µg/mL. For the same molecule, in assay [3], binding was put at a Kd of 0.341 nM. Further, the IC50 (as a rule, the point on the concentration scale where inhibition reaches its midpoint) in assay [4] turned out to be 0.075 µg/mL.

These data come from patent publication CN117924490A (CHINA RESOURCES BIOMEDICAL CO LTD, dated 2024).
